Test: label from the status in PepcDB records
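Note: failed if final PepcDB status was selected cloned or expressed and not failed if soluble or beyond.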

Sequence | protein production
DRTTYYSILGLTSNATSSEVHKSYLKLARLLHPDKTKSDKSEELFKAVVHAHSILTDEDQKLRYDRDLKIKGLHTYQPKK | failed
DSVDLCIMEILKDILDLFHGGRVYIFEYDEYYRYQDCTYEVVAEGVLPEIDSLQRIPTDSLPWWRQQTLSGKPVILDSLDQLPKHAKAEYAILSRQNIKSLMITPLIAGEHVWGYMGIDLVKNYRNWNNEDFQWLSSLANIISICIELRKAKDEAVRERSFLRNLFRFMPMGYIRMTMVRDAAGLP | failed
DYIEMKVPAQPEYVGIIRLTLSGVASRMGYTYDEIEDLKIAVSEACTNAVQHAYKEDKNGEVSIRFGVFEDRLEVIVADEGDSFDFDQKQQDLGPYTPSHTVDQLSEGGLGLYLMETLMDEVRVQNHSGVTVAMTKYLNGERVDHDTT | failed
DYPIMIICPGGGFTYHSGREEAPIATRMMAAGMHTVVLNYQLIVGDQSVYPWALQQLGATIDWITTQASAHHVDCQRIILAGFSAGGHVVATYNGVATQPELRTRYHLDHYQGQHAAIILGYPVIDLTAGFPTTSAARNQITTDARLWAAQRLVTPASKPAFVWQTATDESVPPINSLKYVQAMLQHQVATAYHLFGSGIHGLALANHVTQKPGKDKYLNDQAAIWPQLALRWLQE | failed
EAGGIGIWEWELKPNIFSWDKRMFELYEIPPHIKPNWQVWYECVLPEDRQHAEKVIRDSLQSRSPFKLEFRIAVKDGIRHIRALANRVLNKEGEVERLLGINMDMT | failed
EAKAKANTTRSLQALINLQPQQATVITEQGDQQITVEQITLGMKLRIKPGEKVPVDGVVIQGESYIDESMLTGEPVPVLKAQEAQVSAGTLNTDGALIIEATGIGANTMLARIIRMVRTAQSSKPAIAKLADQ | failed
EAQRELTEMEARTRLTTEMMPAHIAHVGRDLRYTYSNRRLSQVIPGRPSDILGLTGREALGEGLFARIRPCLLRALEGEASVLEFSDEDSGSRIRAAFTPDRTGDGPINGVYILSMDVT | failed
EASSKSYRELIIEGLTALKERKGSSRPALKKFIKENYPIVGSASNFDLYFNNAIKKGVEAGDFEQPKGPAGAVKLAKK | not failed
EDATPETVEYRQLSAADLLADTHLLREVFGLLVLAHYRTEPSDLARLLDAPNLTVRALTHEGHVVAVALLAQEGGLSASTRATMYEGGRVRGNMLPDVLSTQLRDEAAGVPVGQRVLRIATHAAVRSRGLGSKLLSEIRAEFADHVDWVGVSYGATPELVRFWADNGYNTVHLATSRNATSGEYSVVMLDP | failed
EDFVDPWTVQTSSAKGIDYDKLIVRFGSSKIDKELINRIERATGQRPHHFLRRGIFFSHRDMNQVLDAYENKKPFYLYTGRGPSSEAMHVGHLIPFIFTKWLQDVFNVPLVIQMTDDEKYLWKDLTLDQAYSYAVENAKDIIACGFDINKTFIFSDLDYMGMSSGFYKNVVKIQKHVTFNQVKGIFGFTDSDCIGKISFPAIQAAPSFSNSFPQIFRDRTDIQCLIPCAIDQDPYFRMTRDVAPRIGYPKPALLHSTFFPALQGAQTKMSASDPNSSIFLTDTAKQIKTKVNKHAFSGGRDTIEEHRQFGGNCDVDVSFMYLTFFLEDDDKLEQIRKDYTSGAMLTGELKKALIEVLQPLIAEHQARRKEVTDEIVKEFMTPRKLSFDFQ | not failed
EEIRKIPMFSSYNPGEPNKVLYLKNLSPRVTERDLVSLFARFQEKKGPPIQFRMMTGRMRGQAFITFPNKEIAWQALHLVNGYKLYGKILVIEFGKNKKQRS | not failed
EGALPKASEATVCANNSKVSSPGEKVVLWTREADRVILTMCQEQGAQPHTFSVISQQLGNKTPVEVSHRFRELMQLFHTACE | not failed
EGQPLTRLKHMEPRLMAELGGLCAKLDKALAHFDHPGLARTLQWDPQHAGALIDHLLPVLQDGGQRARIEHATRQANEHLMPLVDQLPSQAVHLDITDDNTVWARDAQRQWQLQGVIDFGDLLRTWRIADLSVTCAALLHHAEGDPLRILPAVQAYQALNPLTEAELRALWPLVLNRAAVLVLSSEQQLTVDPGNQYTRDNIAHEWEIFDTATAVPFALMEAAILQAAGLQPAAP | failed
EGWMDEPDWRRFITAYHQEHAGITEQLFSLADTSPYAWLAEPLRAVEGTVLDLACGSAPTRQELPDADWVGVDLSAAELAEAARQGRGPLLRAAADALPAASASVGAVCAAMCLPVVTPLPQTLGEIRRVLRPGGVLAALVPSQSGLSPSGMLGWVRVMAALRAVRQPWPNPQARDGLPALLRTAGFRVRRDERHVFTLAIDSAGAAALLADALYLPGLTTHRAQAAKR | failed
EGYEQDFAVLTAEITSKIARVPRLPPDEKKQMVANVEKQLEEARELLEQMDLEVREIPPQSRGMYSNRMRSYKQEMGKLETDFKRSRIA | not failed
EHAKQASSYIPLDRLSISYCRSSGPGGQNVNKVNSKAEVRFHLASADWIEEPVRQKIALTHKNKINKAGELVLTSESSRYQFRNLAECLQKIRDMIAEA | not failed
EHNYHPNAVAAGLRAGRTRSIGLVIPDLENTSYTRIANYLERQARQRGYQLLIACSEDQPDNEMRCIEHLLQRQVDAIIVSTSLPPEHPFYQRWANDPFPIVALDRALDREHFTSVVGADQDDAEMLAEELRKFPAETVLYLGALPELSVSFLREQGFRTAWKDDPREVHFLYANSYEREAAAQLFEKWLETHPMPQALFTTSFALLQGVMDVTLRRDGKLPSDLAIATFGDNELLDFLQCPVLAVAQRHRDVAERVLEIVLASLDEPRKPKPGLTRIKRNLYRRGVLSRS | not failed
EIAQVTSAYVASGSEQLSLAPGQLILILKKNTSGWWQGELQARGKKRQKGWFPASHVKLLGPSSERA | not failed
EIDYTAYPWFAGNMERQQTDNLLKSHASGTYLIRERPAEAERFAISIKFNDEVKHIKVVEKDNWIHITEAKKFDSLLELVEYYQCHSLKESFKQLDTTLKYPYK | failed

Sequence | protein production
EKIGDRTYRVVSRLSLEDLKDHIEEELDLEIEFGDEIEDQVDTVGGLIAFELGRVPLPGATVETCGLKLTAEGAKNRRGRLRMHSAVVEVGE | not failed
EKQSIHRTQLEALDSVITDLETSAQKGISLTEPEIFASLLETCYSLRAIDHGVRVHHLIPPYLLRNNLGISSKLVRLYASCGYAEVAHEVFDRMSKRDSSPFAWNSLISGYAELGQYEDAMALYFQMAEDGVKPDRFTFPRVLKACGGIGSVQIGEAIHRDLVKEGFGYDVYVLNALVVMYAKCGDIVKARNVFDMIPHKDYVSWNSMLTGYLHHGLLHEALDIFRLMVQNGIEPDKVAISSVLARVLSFKHGRQLHGWVIRRGMEWELSVANALIVLYSKRGQLGQACFIFDQMLERDTVSWNAIISAHSKNSNGLKYFEQMHRANAKPDGITFVSVLSLCANTGMVEDGERLFSLMSKEYGIDPKMEHYACMVNLYGRAGMMEEAYSMIVQEMGLEAGPTVWGALLYACYLHGNTDIGEVAAQRLFELEPDNEHNFELLIRIYSKAKRAEDVERVRQMMVDRGLET | not failed
ELGLRSKTNVVSLDKIIIDKKSSLITGFPEFRMVWKVVRQRVVDDLVSVLDTDYLDMELIPNLTRQIAEQSIYSYIENGLKLLIDYAQKEITIDHSSDRDKILMDIGKDPYVVSIKSKVYLQDGRQFQFTESRHKLEKFRFVDFAKRKK | not failed
ELHAELVKRQHLETFLKTQIESELVDVYFQPIIETRTGNVVKFEALARFYHENSEYSTQEMISIIEDLELIAALDDVVCQTALKQWSHLQKIYGENIGLSINRSLNTKLDSLQVLQRSLDLIKASDVNPKLVTIELTETAYFEQDEEHAFALEQIRQEGIQIAIDDFGTGYSSFSYLEEGQFDVLKIDRKFVKNIHEGSTSYNIVKTITDLAHKLNVEVVAEGVESQRELEVLAGIGVDYMQGFLFSQA | failed
ELPKKRELCKFYITGFCARAENCPYMHGDFPCKLYHTTGNCINGDDCMFSHDPLTEETRELLDKMLADDAEAGAEDEKEVEELKK | not failed
EMVLLPAPQIPLIMKIMKNHTPTWLPGVPTLYEKIVAEATAKGVEIKGIRNSFSGASTLPVRTVEDWENLTGGLLVEGYGLTETSPVLCGNPMNGNRRPGYIGVPFPDTEIRIANPDNLDETMPDGEAGEVLARGPQIFQGYLNKPEATAATFHGDWFRTGDMGVMEEDGFIRLVSRIKEIIITGGFNVYPAEVEEALIAHPDVDDAAVVGRPRKDGSEDVVACIVLKDGAALDPEGLKTHCRKLLTRYKVPRTFYHFEALNKDQLGKVRRREVQQTLLERLGEK | failed
ENDVRVETTLHQNTRIYDVRGQLFFSSSERFAKAFDFQENVAHVIIDLTHSHIWDVTTVASLDHIVDKFQKNGIQVTVKGLNEASSIMIEQYGTHSKI | failed
ENPRNVGSLDKTSKNVGTGLVGAPACGDVMKLQIQVDEKGKIVDARFKTFGCGSAIASSSLATEWVKGKTVEEALTIKNTDIAKELCLPPVKLHCSMLAEDAIKAALADYKLKQESK | not failed
EPAHGRQHTPCLFCDRLFASAEETFSHCKLEHQFNIDSMVHKHGLEFYGYIKLINFIRLKNPTVEYMNSIYNPVPWEKDEYLKPVLEDDLLLQFDVEDLYEPVSTPFS | not failed
EPLKDAVLIEGLPGIGHVGRVAAEHIVEEFNGEKVLELYCDDFPPQIVVKNDGTIEYMKNEFYLVKEPVPMVIVLGNTQALSPKGQYVLSEKIVDIAMKYGATKTYTLGGFGIGKISDELKVYVASTSKELSEQHKELGAEFRTDGGSIIGAAGLMLKFSKLKGIEGICLMGETPGYLVDPKSAGNVLEMLSKAIGFEIDMKKLDERAKEMEKFIEKVQMQEQGMQAPQHQDDLSYIG | failed
EPNRLIKEKSPYLLQHAYNPVDWYPWGEEAFEKARKENKPVFLSIGYSTCHWCHMMAHESFEDEEVAGLMNEAFVSIKVDREERPDIDNIYMTVCQIILGRGGWPLNIIMTPGKKPFFAGTYIPKNTRFNQIGMLELVPRIKEIWEQQHEEVLDSAEKITSTIQEMIKESSG | not failed
EPVLCSRTTCRAVLNPLCQVDYRAKLWACNFCYQRNQFPPSYAGISELNQPA | not failed
EQQADGTWLMDGWISIRKASNLLEHDLVDEAERYSTLGGYLLWQFGYIPAAGEQITVDGLIFEIVSVNKHNIGKVRVHRTQPENE | not failed
EQYEIGVKPPKPANITATYTGGVLTVRVTENGKTLTLTSNVTMPTGTGPFPVVIGMNARTGQLPTNLFNGVIQIPFNHDQVAKYTQGDRDPSYPFFQLYPNLTSNGYYSAWAWGISRLIDGIELVQAQLNADTKRIAVTGCSYAGKMALFAGAFDERIALTIAQESGGGGVNAWRVSETIGNVEKISNTNYAWFMQSLKTNFQNGNAVKLPYDHHELMAMIAPRALLVLGNPPFEWLGDESGYVSSRAAQEVWTTLGVPERFGFSFRGGHDHCSLPSASNAEVTAFVDKFLR | failed
ERATPPVEPRQPPEAQPAERIVAERIVQELVRAGANLNNVRTMLRNVMDNNAVAFSRVEWNILLQHFPDMHTNGISSDSVLANELRQTLRQVVHQQRTQRALAPILSPAPSRPVASSSRSSQRTLLGRFTGWMAPRQTSSSSQAT | failed
ESEKSFRILFEKSPEGFLILDGGGNILEANPAALGMLGEEMEALQGRGVFELLQGEKIPLKEEEMNQKIERIYENRLGQEVLLETILIPAQVEGKARIFAIWRDVT | failed
ETEDQTNMIAIQADGCYIVDALTPIEDFNERFNAEFPDDDYDTIGGLVTEAIGHLPETGDELTIGRFAFRVAKANARRIHILHVTVLP | not failed
EYGYEDLRESSNSLLNHQLSEIDQARLYSCLDHMREVLGDAVPDDILTEAILKHKFDVQKALSVVLEQDG | not failed
EYISVKSQNELLEASTPHPGTRNHIPQLDVDANELALVYRARGMSEADAEQKAAEAFVNLRNAEDQAIIDEPRNDEPING | failed

— a protein production outcome set (Wang et al. 2014)
